The results in this text go back to paper PMC12554172, “Systematic analysis of the RGS2 degron reveals characteristics of substrate recognition by the F-box protein FBXO44” (The Journal of Biological Chemistry, 2025).

For one assay, the target named is T1, FBXO44^FBA (Homo sapiens, UniProt Q9H4M3).
T1 construct: we expressed and purified only this domain for all in vitro studies; 6xHis (N, cleaved yes); MBP (N, cleaved yes); made in house; host or cells: Escherichia coli Rosetta BL21 (λDE3)
T1 sequence (Q9H4M3 71-252 limits assumed): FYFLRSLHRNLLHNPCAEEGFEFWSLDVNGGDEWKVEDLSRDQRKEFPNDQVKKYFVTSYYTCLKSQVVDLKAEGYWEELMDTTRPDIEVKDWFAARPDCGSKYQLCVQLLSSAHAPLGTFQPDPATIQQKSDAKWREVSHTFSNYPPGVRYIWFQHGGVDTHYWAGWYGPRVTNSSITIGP
In words: Peptide microarray (PEPperPRINT), FLAG-FBXO44^FBA binding. Conditions: 2 μg/ml FBXO44^FBA overnight at 4 °C; for Mean % difference from parent peptide (FLAG immunoreactivity): Table S1, RGS2^5–16 single-residue substitution, PBS 0.005% Tween pH 7.4, anti-FLAG DyLight800 fluorescence, three independent experiments with three technical replicates each; for FBXO44^FBA binding in peptide microarray (in words): versus parent RGS2^5–16 peptide, fluorescence. The text has this: To do so, we utilized a custom peptide microarray (PEPperPRINT GmbH). The design of this array was twofold: (1) substitution at each position with every other natural eukaryotic amino acid; (2) truncation of the peptide from the C terminus. We assessed the binding of FLAG-FBXO44^FBA to the array utilizing fluorescence immunoreactivity corresponding to the amount of FLAG-FBXO44^FBA bound. […] Substitutions at Asp^12 were not only tolerated but also seemed to improve binding in every case (Fig. 3B). This, combined with the fact that substituting any residue in His^11–Met^16 with Arg, and in most cases with Lys, improved FBXO44^FBA binding, indicating the presence of negative charges at the binding interface.
Figure 2 Systematic mutation of the RGS2 degron alters FBXO44^FBA binding. A custom microarray (PEPperPRINT) was designed where each position of the RGS2^5–16 peptide was substituted for each natural amino acid. We also included truncated peptides on the array. This was incubated with purified FBXO44^FBA and probed with α-FLAG. A, a representative scan of a peptide microarray (top) and a truncated peptide (bottom). B, heatmap of mean fluorescence of quantified microarray scans. The scale represents the mean fluorescence in percentage points across all replicates, normalized to the signal obtained with the original residue at each position. C, heatmap of standard deviation of quantified microarray scans. The scale represents the standard deviation in percentage points across all replicates. […] Residues are color-coded based on properties: blue, positive charge; red, negative charge; orange, uncharged polar; green, hydrophobic; yellow, Cys (C); bright green, Pro (P); and black, Gly (G). […] Results of three independent experiments with three technical replicates each. For a statistical significance summary, see Table S1. FBXO44, F-box only protein 44; RGS2, regulator of G protein signaling 2.
Figure 3 Effects of RGS2^5–16 peptide residue changes on FBXO44^FBA binding. Data are presented as % FLAG immunoreactivity, as compared with the parent peptide residue. […] The original residue is marked in each graph with a vertical dotted line. Boxes extend from the 25th to 75th percentile with a line marking the median. Whiskers extend to the minimum and maximum. Results of three independent experiments with three technical replicates each. Data were analyzed by two-way ANOVA, with Tukey's post hoc test for pairwise comparison (simple effect within columns). Statistical significance is summarized in Table S1 and color-coded according to the legend. FBXO44, F-box only protein 44; RGS2, regulator of G protein signaling 2.
The microarray slide was seated into the incubation tray according to PEPperPRINT's instructions. The array well was then incubated in washing buffer (PBS) with 0.005% Tween (Sigma; P1379, pH 7.4) at room temperature for 15 min on an orbital shaker. Washing buffer was aspirated, and the array was then incubated with Rockland blocking buffer at room temperature for 30 min on an orbital shaker. Blocking buffer was then aspirated, and the array was incubated in staining buffer (washing buffer with 10% Rockland blocking buffer) at room temperature for 15 min on an orbital shaker. Staining buffer was aspirated, and purified FBXO44 FBA domain diluted to 2 μg/ml in staining buffer was added. The array was then placed on an orbital shaker overnight at 4 °C. The FBA domain solution was removed, and an array was washed three times with washing buffer. After the third array was incubated in staining buffer for 15 min at 4 °C on an orbital shaker. The array was then incubated with antibody dilution (anti-FLAG DyLight800 and anti-HA DyLight680, both diluted 1:2000 in staining buffer) for 45 min at 4° C on an orbital shaker. The array was then washed three times with washing buffer. […]

For the next assay, the system named is HEK-293T cells. In words: RGS2 protein levels, baseline and with proteasome inhibitor MG-132. Type of assay: cell-based, human. Conditions: Fig. S4, five or six independent experiments; for basal RGS2 protein expression versus RGS2^WT (Fig. S4): no MG-132; for change of RGS2 protein levels with MG-132 (Fig. S4): MG-132 10 μM, 4 h. The text has this:
Representative Western blot and quantification of three independent experiments. […] Representative Western blot and quantification of three independent experiments. Representative Western blot (D), quantification of knockdown efficiency (E), and effects on RGS protein levels (F) when FBXO44 is knocked down using siRNA. […] Result of three independent experiments. ∗p < 0.05; ∗∗p < 0.01; ∗∗∗p < 0.001 using two-way ANOVA followed by Tukey's post hoc test for pairwise comparisons (C, E, and F). FBXO44, F-box only protein 44; HEK-293T, human embryonic kidney-293T cell line; RGS2, regulator of G protein signaling 2.
Cells were harvested on ice in lysis buffer containing protease inhibitors (50 mM Tris–HCl [pH 7.4], 5 mM NaCl, 0.5 mM EDTA, 1% Triton X-100, 10% cOmplete Protease Inhibitor Cocktail EDTA-free). Lysates were bath sonicated for 10 min at 4 °C, centrifuged at 6000g for 3 min, and the supernatant was used for SDS-PAGE and immunoblotting. Total protein concentration was determined using the Pierce BCA Protein Assay Kit. Samples were diluted to 1 μg/μl in protein sample loading buffer (Li-Cor Biosciences).
Equal amounts of protein in each lane were resolved on a 12% SDS-PAGE gel for 1 h at 160 V. Samples were transferred to an Immobilon-FL PVDF membrane (Millipore) and subjected to Western immunoblot analysis using Li-Cor blocking buffer for both blocking and antibody diluents. Membranes were blocked for 1 h, then incubated for 2 h in primary antibodies as described under “Antibodies,” and finally incubated for 1 h with IRDye secondary antibodies directed at the species of the primary antibody. Following each antibody incubation, membranes were washed four times in PBS with 0.1% Tween-20. Membranes were imaged using an Azure600 imaging system (Azure Biosystems).
Figure S4. Effect of RGS2 mutations on protein stability. Representative western blot and quantification of five or six independent experiments (varies by mutation). The proteasome inhibitor MG-132 (10 μM, 4 h) […]
P15R were predicted to destabilize RGS2, due to increased binding to FBXO44 in the peptide microarray. […]
significant. *P<0.05; ***P<0.001 using two-way ANOVA followed by Tukey’s post hoc test for pairwise

As for “D12R: array RGS2^5–16 peptide, D12 substituted by R (MFLAVQHRCRPM)”, in the assay with FBXO44^FBA, the “Mean % difference from parent peptide (FLAG immunoreactivity)” value (from here on “Mean % difference from parent peptide”) is on record as 184.9% and the “FBXO44^FBA binding in peptide microarray (in words)” value (“FBXO44^FBA binding” for short) is reported as “enhanced FBXO44^FBA binding”. Moreover, in the assay on HEK-293T cells, the “basal RGS2 protein expression versus RGS2^WT (Fig. S4)” value is “trend towards decreased expression”.

As for “D12T: array RGS2^5–16 peptide, D12 substituted by T (MFLAVQHTCRPM; UniProt P41220 5-16, looked up, variant D12T)”, the “Mean % difference from parent peptide” value in the assay with FBXO44^FBA came to 32.23%.

As for “D12V: array RGS2^5–16 peptide, D12 substituted by V (MFLAVQHVCRPM; UniProt P41220 5-16, looked up, variant D12V)”, in the assay with FBXO44^FBA, the “Mean % difference from parent peptide” value was determined as 40.66%.

For “D12W: array RGS2^5–16 peptide, D12 substituted by W (MFLAVQHWCRPM; UniProt P41220 5-16, looked up, variant D12W)”, the “Mean % difference from parent peptide” value in the assay with FBXO44^FBA turned out to be 48.95%.

“D12Y: array RGS2^5–16 peptide, D12 substituted by Y (MFLAVQHYCRPM; UniProt P41220 5-16, looked up, variant D12Y)”: the “Mean % difference from parent peptide” value in the assay with FBXO44^FBA was 31.8%.

Take “H11R: array RGS2^5–16 peptide, H11 substituted by R (MFLAVQRDCRPM)”: in the assay with FBXO44^FBA, the “Mean % difference from parent peptide” value is on record as 41.19% and the “FBXO44^FBA binding” value is on record as “modest effects, with only one or two substitutions for each reaching significance”.

“M16A: array RGS2^5–16 peptide, M16 substituted by A (MFLAVQHDCRPA; UniProt P41220 5-16, looked up, variant M16A)”: in the assay with FBXO44^FBA, the “Mean % difference from parent peptide” value is on record as -33.89%.

On to “M16C: array RGS2^5–16 peptide, M16 substituted by C”, for which the “Mean % difference from parent peptide” value with FBXO44^FBA was 30.03%.

On to “M16D: array RGS2^5–16 peptide, M16 substituted by D (MFLAVQHDCRPD; UniProt P41220 5-16, looked up, variant M16D)”, for which the “Mean % difference from parent peptide” value in the assay with FBXO44^FBA is 31.28%.

Take “M16G: array RGS2^5–16 peptide, M16 substituted by G (MFLAVQHDCRPG; UniProt P41220 5-16, looked up, variant M16G)”: the “Mean % difference from parent peptide” value in the assay with FBXO44^FBA is -27.86%.

Turning to “M16K: array RGS2^5–16 peptide, M16 substituted by K (MFLAVQHDCRPK; UniProt P41220 5-16, looked up, variant M16K)”, the “Mean % difference from parent peptide” value in the assay with FBXO44^FBA is given as 38.94%.

For “M16R: array RGS2^5–16 peptide, M16 substituted by R (MFLAVQHDCRPR; UniProt P41220 5-16, looked up, variant M16R)”, the “Mean % difference from parent peptide” value with FBXO44^FBA came to 101.4%.

For the substance “P15A: array RGS2^5–16 peptide, P15 substituted by A”, the “Mean % difference from parent peptide” value in the assay with FBXO44^FBA is -27.06%.

Consider “P15C: array RGS2^5–16 peptide, P15 substituted by C”, for which, in the assay with FBXO44^FBA, the “Mean % difference from parent peptide” value is listed as 26.71%.

Consider “P15D: array RGS2^5–16 peptide, P15 substituted by D (MFLAVQHDCRDM; UniProt P41220 5-16, looked up, variant P15D)”, for which the “Mean % difference from parent peptide” value with FBXO44^FBA came to 31.74%.

Regarding “P15G: array RGS2^5–16 peptide, P15 substituted by G”, in the assay with FBXO44^FBA, the “Mean % difference from parent peptide” value was -30.63% and the “FBXO44^FBA binding” value is “decreased binding”. Also, in the assay with HEK-293T cells, the “change of RGS2 protein levels with MG-132 (Fig. S4)” value is given as “none of these mutations resulted in significant changes in basal expression or response to MG-132” and the “basal RGS2 protein expression versus RGS2^WT (Fig. S4)” value is listed as “none of these mutations resulted in significant changes in basal expression”.

For the substance “P15K: array RGS2^5–16 peptide, P15 substituted by K (MFLAVQHDCRKM; UniProt P41220 5-16, looked up, variant P15K)”, the “Mean % difference from parent peptide” value with FBXO44^FBA is listed as 52.32%.

On to “P15R: array RGS2^5–16 peptide, P15 substituted by R (MFLAVQHDCRRM)”, for which, in the assay with FBXO44^FBA, the “Mean % difference from parent peptide” value amounted to 158% and the “FBXO44^FBA binding” value is listed as “enhanced FBXO44^FBA binding”. Further, in the assay with HEK-293T cells, the “change of RGS2 protein levels with MG-132 (Fig. S4)” value is recorded as “none of these mutations resulted in significant changes in basal expression or response to MG-132” and the “basal RGS2 protein expression versus RGS2^WT (Fig. S4)” value is “none of these mutations resulted in significant changes in basal expression”.

In the case of “R14A: array RGS2^5–16 peptide, R14 substituted by A (MFLAVQHDCAPM)”, in the assay with FBXO44^FBA, the “Mean % difference from parent peptide” value was -27.71% and the “FBXO44^FBA binding” value was “modest effects, with only one or two substitutions for each reaching significance”.

Consider “R14W: array RGS2^5–16 peptide, R14 substituted by W (MFLAVQHDCWPM)”, for which, in the assay with FBXO44^FBA, the “Mean % difference from parent peptide” value was 32.54% and the “FBXO44^FBA binding” value is given as “modest effects, with only one or two substitutions for each reaching significance”.
